Experimental findings from patent US20040127421 are described below.

Series [1] has as its system 10-mer (SEQ ID NO:13) NYNFFPRKPK
In series [2] the test system is 9-mer (SEQ ID NO:12) PRCGNPDVA
Series [3] concerns 19-mer (SEQ ID NO:11) PRCGNPDVANYNFFPRKPK

Chain of Active MMP-9 enzyme (chain, as listed by the source): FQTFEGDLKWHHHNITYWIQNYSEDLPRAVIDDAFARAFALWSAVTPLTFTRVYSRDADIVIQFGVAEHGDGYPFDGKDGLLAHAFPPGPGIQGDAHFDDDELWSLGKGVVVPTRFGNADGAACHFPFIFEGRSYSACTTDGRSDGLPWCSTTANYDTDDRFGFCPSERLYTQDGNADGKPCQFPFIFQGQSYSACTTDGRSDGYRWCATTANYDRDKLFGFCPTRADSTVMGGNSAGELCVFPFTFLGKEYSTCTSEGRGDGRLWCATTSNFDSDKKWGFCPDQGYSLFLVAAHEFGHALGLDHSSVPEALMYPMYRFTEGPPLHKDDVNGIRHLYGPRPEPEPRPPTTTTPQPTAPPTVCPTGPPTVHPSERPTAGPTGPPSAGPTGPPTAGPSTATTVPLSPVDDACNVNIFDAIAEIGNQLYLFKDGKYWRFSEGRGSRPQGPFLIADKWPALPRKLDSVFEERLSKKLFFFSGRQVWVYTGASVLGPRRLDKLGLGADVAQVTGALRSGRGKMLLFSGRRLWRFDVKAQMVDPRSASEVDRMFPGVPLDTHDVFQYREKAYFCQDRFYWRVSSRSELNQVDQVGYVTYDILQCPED

On to Active MMP-9 enzyme, for which the entries for the “extended time course of MMP-9 catalyzed hydrolysis of collagen” value in series [1], in series [2] and in series [3] were “The 10-mer is less effective at preventing the destruction of collagen at long time points (FIG. 9) than is the 9-mer (FIG. 10)”, “The 10-mer is less effective at preventing the destruction of collagen at long time points (FIG. 9) than is the 9-mer (FIG. 10)” and “the 19-mer effectively inhibits the MMP-9 catalyzed hydrolysis of collagen to beyond 1000 minutes”, respectively.
